Substrate in series [1]: NC(=O)C1=CN([C@@H]2O[C@H](COP(=O)(O)OP(=O)(O)OC[C@H]3O[C@@H](n4cnc5c(N)ncnc54)[C@H](OP(=O)(O)O)[C@@H]3O)[C@@H](O)[C@H]2O)C=CC1
Put plainly: cells, lysate or membranes. The following applies: 50 mM potassium phosphate pH 7.0, 25 °C, air-saturated O2 (250 µM), cell free extract. The format is biochemical, Fructilactobacillus sanfranciscensis.

Substrate in series [2]: NC(=O)C1=CN([C@@H]2O[C@H](COP(=O)(O)OP(=O)(O)OC[C@H]3O[C@@H](n4cnc5c(N)ncnc54)[C@H](O)[C@@H]3O)[C@@H](O)[C@H]2O)C=CC1
Put plainly: cells, lysate or membranes. The following applies: 50 mM potassium phosphate pH 7.0, 25 °C, air-saturated O2 (250 µM), cell free extract. The format is biochemical, Fructilactobacillus sanfranciscensis.

B1: LsNOX (Lactobacillus sanfranciscensis NOX) (Fructilactobacillus sanfranciscensis) (protein)
chain: MKVIVVGCTHAGTFAVKQTIADHPDADVTAYEMNDNISFLSCGIALYLGKEIKNNDPRGLFYSSPEELSNLGANVQMRHQVTNVDPETKTIKVKDLITNEEKTEAYDKLIMTTGSKPTVPPIPGIDSSRVYLCKNYNDAKKLFEEAPKAKTITIIGSGYIGAELAEAYSNQNYNVNLIDGHERVLYKYFDKEFTDILAKDYEAHGVNLVLGSKVAAFEEVDDEIITKTLDGKEIKSDIAILCIGFRPNTELLKGKVAMLDNGAIITDEYMHSSNRDIFAAGDSAAVHYNPTNSNAYIPLATNAVRQGRLVGLNLTEDKVKDMGTQSSSGLKLYGRTYVSTGINTALAKANNLKVSEVIIADNYRPEFMLSTDEVLMSLVYDPKTRVILGGALSSMHDVSQSANVLSVCIQNKNTIDDLAMVDMLFQPQFDRPFNYLNILGQAAQAQADKAHK
notes: synthetic gene, plasmid pMSsN2, E. coli BL21 (DE3), untagged, cell free extract, about 50 kDa
On to B1, for which the Km in series [1] came to 5 ± 1 µM; in series [2] it was 9 ± 1 µM. Also, the figures for the Vmax in series [1] and in series [2] were 1.1 µmol/min/mg and 2.2 µmol/min/mg, respectively.

As a reminder, the Km is the substrate concentration at which the rate is half of its maximum. Broadly, the Vmax is the rate approached at saturating substrate.

For the origin of these results see publication PMC3995211.
